Assay results: patent US20150266963A1 (ARGEN X B V, published 2015)

Assays:
[1] = target: T1, human-mouse CD70 chimera chim-2 (Flag-TNC-CD70); assay: ELISA; chimera captured by anti-Flag mAb
T1 construct: also called chimera 2
T1 chain: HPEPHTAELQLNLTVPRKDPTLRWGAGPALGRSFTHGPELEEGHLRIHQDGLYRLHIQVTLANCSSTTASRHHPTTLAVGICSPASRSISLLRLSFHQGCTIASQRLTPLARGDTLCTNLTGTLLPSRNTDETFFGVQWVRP

[2] = target: T2, human-mouse CD70 chimera chim-3 (Flag-TNC-CD70); assay: ELISA; chimera captured by anti-Flag mAb
T2 construct: also called chimera 3
T2 chain: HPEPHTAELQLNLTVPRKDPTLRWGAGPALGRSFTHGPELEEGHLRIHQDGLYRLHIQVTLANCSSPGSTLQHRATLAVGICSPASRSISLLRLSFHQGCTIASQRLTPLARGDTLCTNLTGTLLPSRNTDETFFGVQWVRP

[3] = target: T3, human CD70 expressed on the surface of cells (human, UniProt P32970 1-193); assay: FACS MFI at 37 C, A498 cells; reference SGN70
T3 construct: whole, on cells; also called cell surface expressed CD70; CD70 on cells
T3 sequence (looked up): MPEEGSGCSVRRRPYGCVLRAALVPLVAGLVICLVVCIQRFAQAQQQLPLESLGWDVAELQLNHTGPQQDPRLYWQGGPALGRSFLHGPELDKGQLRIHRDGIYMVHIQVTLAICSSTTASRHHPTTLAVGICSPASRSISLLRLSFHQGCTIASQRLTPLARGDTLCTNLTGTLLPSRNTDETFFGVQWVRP
Experimental: (§1) Several cancer cell lines were tested by FACS analysis for binding of ARGX-110 and SGN70 (described in US2010/0129362) at saturating mAb concentrations (at least 2 μg/ml). This was either done at 4° C. (1 hour incubation of cells with mAbs) or at 37° C. (15 minutes incubation of cells with mAbs). Binding was detected using anti-hIgG1-Fc-FITC (AF006, Binding Site) or anti-hIgG1-Fc-PE antibody (eBioscience, 12-4998). Fluorescence was measured using a flow cytometer.

[4] = target: T3, human CD70 expressed on the surface of …; assay: FACS MFI at 37 C, Raji cells; reference SGN70
Experimental: as §1

[5] = target: T3, human CD70 expressed on the surface of …; assay: FACS MFI at 37 C, HUT78 cells; reference SGN70
Experimental: as §1

[6] = target: T3, human CD70 expressed on the surface of …; assay: FACS MFI at 37 C, Caki-1 cells; reference SGN70
Experimental: as §1

[7] = target: T3, human CD70 expressed on the surface of …; assay: FACS MFI at 37 C, MHHPREB1 cells; reference SGN70
Experimental: as §1

[8] = target: T3, human CD70 expressed on the surface of …; assay: FACS MFI at 37 C, Granta 519 cells; reference SGN70
Experimental: as §1

[9] = target: T4, recombinant human CD70 (Flag-TNC-CD70) (human, UniProt P32970 39-193); assay: ELISA; Flag-TNC-CD70 captured by anti-Flag mAb; anti-human-Fc-HRP
T4 construct: extracellular domain; Captured by anti-Flag mAb in ELISA; as 'recombinant human CD70' immobilised on Biacore CM5 chips; TNC is for trimerisation; also called recombinant CD70; human recombinant CD70; not shown: Flag tag and TNC trimerisation domain
T4 sequence (looked up): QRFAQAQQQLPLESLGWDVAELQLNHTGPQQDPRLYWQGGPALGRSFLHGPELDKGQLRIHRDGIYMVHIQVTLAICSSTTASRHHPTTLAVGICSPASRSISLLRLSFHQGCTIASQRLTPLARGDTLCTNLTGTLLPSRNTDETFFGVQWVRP
Experimental: A Maxisorb (Nunc) microtiter plate was coated with 3.5 μg/ml mouse M2 anti-Flag mAb (Sigma Aldrich, F3165) and the different chimeras were captured. A dilution series of the CD70 mAbs to be tested was applied starting at a concentration of 10 μg/ml and making 3-fold dilutions. After 2 hours, binding was detected using anti-human-Fc-HRP at a 16000-fold dilution. Staining was done with ABTS and OD at 405 nm was measured. As a positive control, CD27-Fc was applied which is able to bind to both human and mouse CD70 with good affinity as well as to the chimeric human-mouse CD70 variants.

[10] = target: T5, rhesus CD70 on LCL8664 cells (rhesus, UniProt F7GPA5 123-316); assay: flow cytometry on rhesus LCL8664 cells, goat anti human IgG1 FITC [panel Rhesus monkey]
T5 construct: whole, on cells
T5 sequence: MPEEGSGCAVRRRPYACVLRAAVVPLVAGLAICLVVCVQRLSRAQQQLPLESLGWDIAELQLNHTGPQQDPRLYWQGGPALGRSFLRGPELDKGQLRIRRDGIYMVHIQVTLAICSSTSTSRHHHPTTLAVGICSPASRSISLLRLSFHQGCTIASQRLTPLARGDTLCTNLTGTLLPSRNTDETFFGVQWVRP

[11] = target: T6, cynomolgus monkey CD70 on HSC-F cells (cynomolgus monkey, UniProt A0A2K5WTU9 1-190); assay: flow cytometry on cynomolgus HSC-F cells, goat anti human IgG1 FITC [panel cynomolgus monkey]
T6 construct: whole, on cells; also called cynomolgus CD70
T6 sequence: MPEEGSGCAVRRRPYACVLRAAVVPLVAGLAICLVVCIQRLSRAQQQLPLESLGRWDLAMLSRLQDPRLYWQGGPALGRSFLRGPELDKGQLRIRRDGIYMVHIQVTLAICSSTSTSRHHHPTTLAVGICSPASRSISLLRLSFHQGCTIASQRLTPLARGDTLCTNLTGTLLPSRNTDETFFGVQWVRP

[12] = target: T3, human CD70 expressed on the surface of …; assay: flow cytometry on SU-DHL-6 cells, 1 h at 4 °C, anti-hIgG1-Fc-FITC or anti-hIgG-Fc-PE [panel SU-DHL-6]
Experimental: […] This was either done at 4° C. (1 hour incubation of cells with mAbs) or at 37° C. (15 minutes incubation of cells with mAbs). Binding was detected using anti-hIgG1-Fc-FITC (AF006, Binding Site) or anti-hIgG1-Fc-PE antibody (eBioscience, 12-4998). Fluorescence was measured using a flow cytometer.

Signal in FACS of ARGX-110/signal in FACS of SGN70 [3]: 1 ratio | Signal in FACS of ARGX-110/signal in FACS of SGN70 [4]: 1.2 ratio | Signal in FACS of ARGX-110/signal in FACS of SGN70 [5]: 1 ratio | Signal in FACS of ARGX-110/signal in FACS of SGN70 [6]: 1.9 ratio | Signal in FACS of ARGX-110/signal in FACS of SGN70 [7]: 1.2 ratio | Signal in FACS of ARGX-110/signal in FACS of SGN70 [8]: 0.9 ratio | EC50 [9]: 0.022 µg/mL | EC50 (read off the curve) [10]: ~0.2 µg/mL | EC50 (read off the curve) [11]: ~0.08 µg/mL | EC50 (read off the curve) [12]: ~2 µg/mL
B1: ARGX-110 (non-fucosylated 41D12 human IgG1) (antibody, V domains shown)
VH: EVQLVESGGGLVQPGGSLRLSCAASGFTFSVYYMNWVRQAPGKGLEWVSDINNEGGTTYYADSVKGRFTISRDNSKNSLYLQMNSLRAEDTAVYYCARDAGYSNHVPIFDSWGQGTLVTVSS
VL: QAVVTQEPSLTVSPGGTVTLTCGLKSGSVTSDNFPTWYQQTPGQAPRLLIYNTNTRHSGVPDRFSGSILGNKAALTITGAQADDEAEYFCALFISNPSVEFGGGTQLTVLG
notes: also called 41D12 (ARGX-110)
binding result [1]: no binding (tested: dilution series from 10 µg/ml) | binding result [2]: no binding (tested: dilution series from 10 µg/ml)
